Test results: paper doi:10.1101/2022.04.13.488184

Molecular target: Sulfolobus acidocaldarius SRP54 (Sulfolobus acidocaldarius) (UniProt O07853)
Test: FRET or BRET

Sequence of UniProt O07853 (O07853 whole entry): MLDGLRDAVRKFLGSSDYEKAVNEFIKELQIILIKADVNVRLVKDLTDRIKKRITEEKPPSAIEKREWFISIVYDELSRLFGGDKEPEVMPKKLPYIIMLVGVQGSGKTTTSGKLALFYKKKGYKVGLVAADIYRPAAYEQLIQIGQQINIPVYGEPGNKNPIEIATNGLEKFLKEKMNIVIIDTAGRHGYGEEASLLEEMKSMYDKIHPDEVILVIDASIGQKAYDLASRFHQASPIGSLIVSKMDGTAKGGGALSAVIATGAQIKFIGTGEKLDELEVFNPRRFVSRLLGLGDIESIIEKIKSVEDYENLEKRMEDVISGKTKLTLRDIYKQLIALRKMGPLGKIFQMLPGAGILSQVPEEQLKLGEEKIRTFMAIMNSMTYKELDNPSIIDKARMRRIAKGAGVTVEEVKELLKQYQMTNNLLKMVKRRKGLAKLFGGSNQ

Row | Kd [nM] | Substance
1 | 75 | FtsYΔαN1 (Tyr87-Ser369) (from UniProt P27414 87-369) (domain or fragment)
2 | 114 | FtsYΔαN2 (Ser109-Ser369) (from UniProt P27414 109-369) (domain or fragment)
3 | 272 | FtsYΔαN3 (Gly129-Ser369) (from UniProt P27414 129-369) (domain or fragment)
